Assay results taken from the supplement of paper PMC5998384.

Tested on: HeLa Kyoto
Test: thermal stability score vs G1/S (z-score of summed log2 fold changes over temperatures); higher = more thermally stable than in G1/S
[1] = cell cycle stage: early G1 (4.5 h after nocodazole release)
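Further: synchronized HeLa Kyoto cells, proteins quantified by TMT10plex mass spectrometry, three biological replicates, mitosis taken 0.5 h after nocodazole release, G1/S directly after double thymidine block.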

Sequence of GORASP1 (chain, as listed by the source): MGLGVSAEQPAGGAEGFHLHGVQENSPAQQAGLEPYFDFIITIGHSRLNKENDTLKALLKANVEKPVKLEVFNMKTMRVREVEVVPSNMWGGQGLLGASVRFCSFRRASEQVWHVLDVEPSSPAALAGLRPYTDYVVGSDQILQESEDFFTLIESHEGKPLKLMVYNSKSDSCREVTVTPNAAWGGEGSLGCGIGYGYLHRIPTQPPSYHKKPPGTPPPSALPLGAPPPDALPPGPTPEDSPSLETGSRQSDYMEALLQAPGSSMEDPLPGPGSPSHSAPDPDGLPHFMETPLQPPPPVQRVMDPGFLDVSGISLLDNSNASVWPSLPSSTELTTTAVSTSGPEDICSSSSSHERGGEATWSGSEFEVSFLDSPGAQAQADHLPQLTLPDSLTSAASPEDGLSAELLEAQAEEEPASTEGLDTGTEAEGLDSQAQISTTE

Substance	thermal stability score [1]	thermal stability score (cell cycle stage: mitosis)
MNRESFAAGERLVSPAYVRQGCEARRSHEHLIRLLLEKGKCPENGWDESTLELFLHELAIMDSNNFLGNCGVGEREGRVASALVARRHYRFIHGIGRSGDISAVQPKAAGSSLLNKITNSLVLDIIKLAGVHTVANCFVVPMATGMSLTLCFLTLRHKRPKAKYIIWPRIDQKSCFKSMITAGFEPVVIENVLEGDELRTDLKAVEAKVQELGPDCILCIHSTTSCFAPRVPDRLEELAVICANYDIPHIVNNAYGVQSSKCMHLIQQGARVGRIDAFVQSLDKNFMVPVGGAIIAGFNDSFIQEISKMYPGRASASPSLDVLITLLSLGSNGYKKLLKERKEMFSYLSNQIKKLSEAYNERLLHTPHNPISLAMTLKTLDEHRDKAVTQLGSMLFTRQVSGARVVPLGSMQTVSGYTFRGFMSHTNNYPCAYLNAASAIGMKMQDVDLFIKRLDRCLKAVRKERSKESDDNYDKTEDVDIEEMALKLDNVLLDTYQDASS [SEPSECS]	-1.52	-1.62
TTC3	0.321	-0.39
MGQCGITSSKTVLVFLNLIFWGAAGILCYVGAYVFITYDDYDHFFEDVYTLIPAVVIIAVGALLFIIGLIGCCATIRESRCGLATFVIILLLVFVTEVVVVVLGYVYRAKVENEVDRSIQKVYKTYNGTNPDAASRAIDYVQRQLHCCGIHNYSDWENTDWFKETKNQSVPLSCCRETASNCNGSLAHPSDLYAEGCEALVVKKLQEIMMHVIWAALAFAAIQLLGMLCACIVLCRRSRDPAYELLITGGTYA [TSPAN3]	-0.556	-0.785
DENND4B	-0.499	-0.617
GORASP1	0.552	0.301
MAAAEEGCSVGAEADRELEELLESALDDFDKAKPSPAPPSTTTAPDASGPQKRSPGDTAKDALFASQEKFFQELFDSELASQATAEFEKAMKELAEEEPHLVEQFQKLSEAAGRVGSDMTSQQEFTSCLKETLSGLAKNATDLQNSSMSEEELTKAMEGLGMDEGDGEGNILPIMQSIMQNLLSKDVLYPSLKEITEKYPEWLQSHRESLPPEQFEKYQEQHSVMCKICEQFEAETPTDSETTQKARFEMVLDLMQQLQDLGHPPKELAGEMPPGLNFDLDALNLSGPPGASGEQCLIM [G3V3G9|DCAF8]	0.212	-1
MEERERGARSAGAGSPARPPSPRLDVSSDSFDPLLALYAPRLPPIPYPNAPCFNNVAEYESFLRTGVRGGGRGRGRARGAAAGSGVPAAPGPSGRTRRRPDAPAPDPERIQRLRRLMVAKEEGDGAAGAGRRGPGRSRKAPRNVLTRMPLHEGSPLGELHRCIREGVKVNVHIRTFKGLRGVCTGFLVAFDKFWNMALTDVDETYRKPVLGKAYERDSSLTLTRLFDRLKLQDSSKKEADSKSAVEDSTLSRYSQTSTWKLASVWGRADTGRGSHKRSRSVPSSLQASAREESRSELSGRTTRTDGSSVGGTFSRATTLSRGQSRKKKRKPKVDYQQVFTRHINQIFIRGENVLLVHLAQ [LSM11]	0.976	0.837
MAQRAVWLISHEPGTPLCGTVRFSRRYPTVEKRARVFNGASYVPVPEDGPFLKALLFELRLLDDDKDFVESRDSCSRINKTSIYGLLIGGEELWPVVAFLKNDMIYACVPLVEQTLSPRPPLISVSGVSQGFEFLFGIQDFLYSGQKNDSELNTKLSQLPDLLLQACPFGTLLDANLQNSLDNTNFASVTQPQKQPAWKTGTYKGKPQVSISITEKVKSMQYDKQGIADTWQVVGTVTCKCDLEGIMPNVTISLSLPTNGSPLQDILVHPCVTSLDSAILTSSSIDAMDDSAFSGPYKFPFTPPLESFNLCFYTSQVPVPPILGFYQMKEEEVQLRITINLKLHESVKNNFEFCEAHIPFYNRGPITHLEYKTSFGQLEVFREKSLLIWIIGQKFPKSMEISLSGTVTFGAKSHEKQPFDPICTGETAYLKLHFRILDYTLTGCYADQHSVQVFASGKPKISAHRKLISSDYYIWNSKAPAPVTYGSLLL [AP5M1]	2.33e-19	-1.74e-18
